Data reported in patent US20220119506A1 (NOVOBIND LIVESTOCK THERAPEUTICS, published 2022).
Residue numbers refer to the chain shown, from its start.

T1: PirB (Vibrio parahaemolyticus)
T1 construct: also called JHE-like toxin PirB-like
T1 chain: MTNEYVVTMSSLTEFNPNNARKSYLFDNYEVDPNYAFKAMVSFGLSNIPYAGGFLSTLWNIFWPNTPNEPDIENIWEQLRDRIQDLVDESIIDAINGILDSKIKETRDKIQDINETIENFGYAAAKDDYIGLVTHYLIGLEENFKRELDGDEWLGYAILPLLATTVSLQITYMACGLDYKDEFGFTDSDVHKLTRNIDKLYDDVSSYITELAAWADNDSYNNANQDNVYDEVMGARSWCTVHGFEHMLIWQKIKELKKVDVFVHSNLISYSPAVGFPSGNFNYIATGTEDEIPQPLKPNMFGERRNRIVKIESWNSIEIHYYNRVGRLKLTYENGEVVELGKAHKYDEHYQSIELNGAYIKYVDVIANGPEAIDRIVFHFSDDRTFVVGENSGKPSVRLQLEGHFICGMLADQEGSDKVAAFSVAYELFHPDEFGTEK

B1: NBX09003 (VHH)
VHH: QVQLQESGGGLVQPGGSLRLSCTASGSIFSLLNMGWYRQAPGKQRELVASITSRSYTNYADSVKGRFTISRDNTKNMVYLQMNSLKPEDTAVYYCNLNPADWGRLRNWGQGTQVTVSS
notes: on phage in the phage ELISA
B2: NBX0865 (VHH)
VHH: QVQLQESGGGLVQAGGSLRLSCADSGRVFSTYVMGWYRQVPGKQRELVATITPGGLINYGDAVKGRFTISRDNAKNTVYLQMNSLKPADTAVYYCNARRLFAINWGGGTQVTVSS
notes: on phage in the phage ELISA
B3: NBX09006 (VHH)
VHH: QVQLQESGGGLVQPGGSLRLSCAASGSISGSYVMGWYRQAPGKQRELVATITSGGLTRYADSVKGRWTISRDNAKNTVYLQMNNLKLEDTAVYYCSARRIATTYWGQGTQVTVSS
notes: on phage in the phage ELISA
B4: NBX0864 (VHH)
VHH: QVQLQESGGGLVQPGGSLRLSCAASGIISSAYVMGWYRQAPGKQRELVATITSGGTTRYADSVKGRITISRDNAKNTVLLQMNSLKPEDTAVYYCNARILLTNYWGQGTQVTVSS
notes: on phage in the phage ELISA
B5: NBX09002 (VHH)
VHH: QVQLQESGGGLVQAGESLRLSCADSGRTSSTYDMAWFRQAPGKEREFVAAISRDGGRLSYADSVKGRFTISRDNAKNTLSLQMNSLRPEDTAVYYCAAFSIRGGLRPSYKYWGQGTQVTVSS
notes: on phage in the phage ELISA
B6: NBX0827 (VHH)
VHH: QVQLQESGGGLVQAGGSLRLSCAASGSISSSFVMGWYRQAPGKQRELVATITSGGSTIYADSVKGRFTVSRDNAKNTVYLQMNSLKSEDTAVYYCHARRLWNTYWGQGTQVTVSS
notes: on phage in the phage ELISA
B7: NBX0831 (VHH)
VHH: B6 VHH with A23S, S27D, I28A, S29F, S31R, F32Y
notes: on phage in the phage ELISA
B8: NBX0854 (VHH)
VHH: QVQLQQSGGGLVQAGGSLRISCAASGSISSAYVMGWYRQAPGTQRELVATITSGGTTNYADSVKGRFTVSRDNAKNTVYLQMNSLKPDDTAVYYCNARRLWTTYWGQGTQVTVSS
notes: on phage in the phage ELISA
B9: NBX09008 (VHH)
VHH: QVQLQESGGGLVQAGGSLRLSCSASGRTFSVRAMGWFRQAPGKERESVAAIHQNTRTTLYADSVKGRFAISRDGTKNTVYLQMNSLKPEDTAVYYCAASDDYGLQIKEVAYKYWGQGTQVTVAS
notes: on phage in the phage ELISA
B10: NBX0863 (VHH)
VHH: QVQLQQSGGGLAQAGGSLRLSCAASGRTFNWYTMAWFRQAPGKEREFVAAIRLGSTVYGDSVKARFTISRDNAKSTVSLQMNSLKPEDTALYYCAVGITGDGTIQGGPYQYWGQGTQVTVSS
notes: on phage in the phage ELISA
B11: NBX0852 (VHH)
VHH: QVQLQESGGGLVQAGGSLRLSCEASGRTFSSYRVGWFRQAPGKGREFVAAISATGGTTYYGDSVKGRFTISRDNAENTVSLQMNSLEPEDTAVYYCAATKGIVNYRVAGTYDAWGQGTQVTVSS
notes: on phage in the phage ELISA
B12: NBX0862 (VHH)
VHH: QVQLQESGGGLVQPGGSLRLSCSASGNRFSSSYVLGWYRQAPGKQRELVATVTSGGLTHYGDSVKGRFTISRDNAKNTVYLQMNSLKPEDTAVYYCNARILLTNYWGQGTQVTVSS
notes: on phage in the phage ELISA
B13: NBX0843 (VHH)
VHH: B12 VHH with L35M, W37Y, S54T, H59N, G61A
notes: on phage in the phage ELISA
B14: NBX0859 (VHH)
VHH: QVQLQESGGGLVQPGGSLRLSCSASGNRFSSSYVMGWYRQGPGKQRELVATVTSGGMTHYGDSVKGRFTISRDNAKNTVYLHMNSLKPEDTGVYYCFARRLWDIHWGQGTQVTVSS
notes: on phage in the phage ELISA
B15: NBX0835 (VHH)
VHH: B12 VHH with L35M, Y60F, G61K, V114I
notes: on phage in the phage ELISA
B16: NBX09005 (VHH)
VHH: QVQLQESGGGLVQAGGSLRLSCAASGLTFGSYAMGWFRQAPGKEREFVAAIMRYSSRTYYTDSVKGRFTISRDNAKNTVNLQMNNLEPEDTAIYYCAAAKRLSIVTLPRQYEFWGQGTQVTVSS
notes: on phage in the phage ELISA
B17: NBX09010 (VHH)
VHH: B16 VHH with E6Q, I104R, Q110E
notes: on phage in the phage ELISA
B18: NBX09009 (VHH)
VHH: B16 VHH with A50T, T91A, T106A
notes: on phage in the phage ELISA
B19: NBX0861 (VHH)
VHH: QVQLQESGGGLVQAGGSLRLSCVASGSISNSHVMGWYRQAPGKERELVATLTSGGLTHFGDSVKGRFTISRDNAKNTIYLQMNSLKVEDTAVYYCNARRLLTSMWGQGTQVTVSP
notes: on phage in the phage ELISA
B20: NBX09001 (VHH)
VHH: QVQLQESGGGSVQPGGSLRLSCAASGSALSSNVLGWYRQAPGKQRELVATISSGGLTNYADSVKGRFTISRDNAKNTVYLQMNSLKPEDTAVYYCQSRRLFTVYWGQGTQVTVSS
notes: on phage in the phage ELISA
B21: NBX0858 (VHH)
VHH: QVQLQESGGGLVQAGGSLRLSCAASRRDFTTTTMAWYRQAPGKKRETVATVNTGGLTWYADFVKGRFTISRDDAVNTLLLQMDSLKPEDTAVYYCNAVLVRARGMWGQGTQVTVSS
notes: on phage in the phage ELISA
B22: NBX09007 (VHH)
VHH: QVQLQESGGGLVQPGGSLRLSCAASGSISSSYVMGWYRQAPGKQRDLVATITNAGNIHYGDSVKGRFTISRDNAKNTVSLQMNSLKPEDTAVYYCNARALWRAYWGQGTQVTVSS
notes: on phage in the phage ELISA
B23: NBX0850 (VHH)
VHH: QVQLQESGGGLVQAGGSLRLSCAASGSISASYVMGWYRQTPGKQRELVATTTSGGTTRYADSVRGRFTISRDNARNTVYLQMNSLKPDDTAVYYCNARRLFLNYWGQGTQVTVSS
notes: on phage in the phage ELISA
B24: NBX0851 (VHH)
VHH: QVQLQQSGGGLVQPGGSLRLSCAASGRMFSGYVMGWYRQAPGKQRELVATITNGGLTNYADSVKGRFTISRDNAKNTVYLQMNSLKPDDTAVYYCNARRLWDIYWGQGTQVTVSS
notes: on phage in the phage ELISA
B25: NBX0857 (VHH)
VHH: B24 VHH with M28I, Y32H, A60G, I103T
notes: on phage in the phage ELISA
B26: NBX0855 (VHH)
VHH: QVQLQESGGGLVQPGESLRLSCAASTSGFSSYVMAWYRQAPGKQRELVASMTTGGLTNYADSVKGRFTISRDNAKNTVYLQMNSLKPEDTAAYYCNARRLWNAYWGQGTQVTVSS
notes: on phage in the phage ELISA

Biological target: T1, PirB
Assay: phage ELISA, antigen-coated wells

| Binder | binding above PBS-coated wells [%] |
| --- | --- |
| B1 | ≥ 50 |
| B2 | ≥ 50 |
| B3 | ≥ 50 |
| B4 | ≥ 50 |
| B5 | ≥ 50 |
| B6 | ≥ 50 |
| B7 | ≥ 50 |
| B8 | ≥ 50 |
| B9 | ≥ 50 |
| B10 | ≥ 50 |
| B11 | ≥ 50 |
| B12 | ≥ 50 |
| B13 | ≥ 50 |
| B14 | ≥ 50 |
| B15 | ≥ 50 |
| B16 | ≥ 50 |
| B17 | ≥ 50 |
| B18 | ≥ 50 |
| B19 | ≥ 50 |
| B20 | ≥ 50 |
| B21 | ≥ 50 |
| B22 | ≥ 50 |
| B23 | ≥ 50 |
| B24 | ≥ 50 |
| B25 | ≥ 50 |
| B26 | ≥ 50 |
